Results published in patent US20220275069.

System: T1, Recombinant gasdermin D (rGSDMD), full-length
T1 sequence: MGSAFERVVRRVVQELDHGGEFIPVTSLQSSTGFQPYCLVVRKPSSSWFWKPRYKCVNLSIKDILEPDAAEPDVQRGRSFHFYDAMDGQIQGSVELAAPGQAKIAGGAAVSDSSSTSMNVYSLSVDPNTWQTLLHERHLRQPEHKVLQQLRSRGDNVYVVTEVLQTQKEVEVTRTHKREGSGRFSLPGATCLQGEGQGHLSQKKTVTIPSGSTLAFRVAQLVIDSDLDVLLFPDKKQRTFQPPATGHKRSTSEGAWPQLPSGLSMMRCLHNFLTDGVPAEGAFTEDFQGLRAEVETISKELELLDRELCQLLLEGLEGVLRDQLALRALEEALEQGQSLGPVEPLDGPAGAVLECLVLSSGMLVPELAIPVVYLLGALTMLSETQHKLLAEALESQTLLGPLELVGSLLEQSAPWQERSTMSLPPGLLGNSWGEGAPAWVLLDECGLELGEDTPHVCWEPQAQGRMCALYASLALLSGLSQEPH

Substance: Recombinant caspase-1
- cleavage of recombinant gasdermin D (1 hour at 37 C, SDS-PAGE and protein stain): resulted in the formation of a ~31 kDa N-terminal domain and ~22 kDa C-terminal domain
